First the molecules themselves.
B1: IgG1 m336-gL (all light-chain somatic mutations reverted to germline) (antibody, V domains shown)
VH: QVQLVQSGAEVKKPGSSVKVSCKASGGTFSSYAISWVRQAPGQGLEWMGGIIPIFGTASYAQKFQGRVTITADKSTSTAYMELSSLRSEDTAVYYCARVGYCSSTSCNRGAFDIWGQGTMVTVSS
VL: DIQMTQSPSSLSASVGDRVTITCRASQGIRNDLGWYQQKPGKAPKRLIYAASSLQSGVPSRFSGSGSGTEFTLTISSLQPEDFATYYCLQHNSYPLTFGGGTKVEIK
B2: IgG1 m336 (antibody, V domains shown)
VH: B1 VH
VL: B1 VL with M4L, R46L, E70D, L89Q, H91L
B3: IgG1 m336-gH (heavy-chain somatic mutation reverted to germline) (antibody, V domains shown)
VH: B1 VH with S59N
VL: B1 VL with M4L, R46L, E70D, L89Q, H91L
B4: IgG1 m336-gL-FR (light-chain framework somatic mutations reverted to germline) (antibody, V domains shown)
VH: B1 VH
VL: B1 VL with L89Q, H91L

A word on the Kd: it is the concentration at which binding is half-saturated. For orientation: koff means a measure of how fast the partners let go of each other.

Positions count from the first letter of the chain named.

For the first assay, the target named is recombinant MERS-CoV S1 protein (MERS-CoV). As to the kind of experiment: SPR.
Take B1: the Kd was found to be 25.2 nM.

With B2, the Kd is 1.49 nM.

For the molecule B3, the Kd came out at 0.239 nM.

Take B4: the Kd is 15.7 nM.

The next assay shares this target. As to the kind of experiment: SPR. This is another data set of the same source. For orientation: In SPR one partner is held on a chip, and binding of the other changes the refractive index at the surface.
In the case of B1, the koff turned out to be 0.000545 s⁻¹.

For the molecule B2, the koff is 0.000955 s⁻¹.

Take B3: the koff came out at 0.000329 s⁻¹.

For the molecule B4, the koff worked out at 0.000769 s⁻¹.

For the origin of these results see paper PMC4571279 (2015).
